The target of this experiment is T1, human CSF3 protein (human, UniProt P09919 31-207).
T1 construct: also called G-CSF; human colony-stimulating factor 3
T1 sequence: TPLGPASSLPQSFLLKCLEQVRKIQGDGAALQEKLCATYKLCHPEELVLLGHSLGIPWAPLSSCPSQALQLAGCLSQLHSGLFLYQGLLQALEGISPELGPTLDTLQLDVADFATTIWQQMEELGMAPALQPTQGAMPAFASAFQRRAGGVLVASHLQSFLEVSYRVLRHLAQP
Briefly: high-mass MALDI MS of a mixture of Y41 antibody and human CSF3 protein; complexes of one or two CSF3 with one Y41.

B1: C41 (or Y41) (antibody, human IgG1, kappa, V domains shown)
VH: EMQLVQSGAEARKPGSSVKVSCKASGYTFTNYGISWLRQTPGQGLEWMGWINPNSGGTIYAQKFQGRVTMTRDTPITTAYMELSTLRSEDTAVYYCSRGSGGAVPFDVWGQGTMVTVSS
VL: DIQMTQSPFSLSASVGDRVTITCRASQTISNRLNWYQHKPGKAPKLFIYYASSLQSGVPSRFSGSGSGTDFALTISSLQPEDFATYYCQQGYSSPRTFGQGTKVEIKR
notes: Human IgG1; the CDR numbers printed for Y41 disagree between places; also called 007A06; CSA1241
As to B1, the binding result is reported as “binds”.

The values are drawn from patent EP4803540A1 (FNCTBiotech Inc., dated 2026).
